Data: patent US11325966

Key:
Assay in all cases: cell-based or functional assay
[1] = biological target: HIV-1 Env of pseudovirus 1394C9G1 (Rev-) (HIV-1)
[2] = biological target: HIV-1 Env of pseudovirus 7030102001E5 (Rev-) (HIV-1)
[3] = biological target: HIV-1 envelope (Env) of pseudovirus 0815.v3.c3 (HIV-1)
[4] = biological target: HIV-1 envelope (Env) of pseudovirus P1981_C5_3 (HIV-1)
[5] = biological target: HIV-1 envelope (Env) of pseudovirus YU2_N276D (HIV-1) (UniProt P35961)
[6] = biological target: HIV-1 envelope (Env) of pseudovirus Ce2010_F5 (HIV-1)
[7] = biological target: HIV-1 envelope (Env) of pseudovirus 6535.3 (HIV-1)
[8] = biological target: HIV-1 envelope (Env) of pseudovirus CAP210.2.00.E8 (HIV-1)
[9] = biological target: HIV-1 envelope (Env) of pseudovirus 191821_E6_1 (HIV-1)
[10] = biological target: HIV-1 envelope (Env) of pseudovirus THRO4156.18 (HIV-1)
[11] = biological target: HIV-1 envelope (Env) of pseudovirus Q259.d2.17 (HIV-1)
[12] = biological target: HIV-1 envelope (Env) of pseudovirus 211-9 (HIV-1)
[13] = biological target: HIV-1 envelope (Env) of pseudovirus 191084 B7-19 (HIV-1)
[14] = biological target: HIV-1 envelope (Env) of pseudovirus T278-50 (HIV-1)
[15] = biological target: HIV-1 envelope (Env) of pseudovirus 620345.c01 (HIV-1)
[16] = biological target: HIV-1 envelope (Env) of pseudovirus BF1266.431a (HIV-1)
[17] = biological target: HIV-1 envelope (Env) of pseudovirus Q461.e2 (HIV-1)
[18] = biological target: HIV-1 envelope (Env) of pseudovirus 231965.c01 (HIV-1)
[19] = biological target: HIV-1 envelope (Env) of pseudovirus 249M B10 (HIV-1)
[20] = biological target: HIV-1 envelope (Env) of pseudovirus HIV-16055-2.3 (HIV-1)
[21] = biological target: HIV-1 envelope (Env) of pseudovirus P0402_c2_11 (HIV-1)
[22] = biological target: HIV-1 envelope (Env) of pseudovirus CNE20 (HIV-1)
[23] = biological target: HIV-1 envelope (Env) of pseudovirus 9004SS_A3_4 (HIV-1)
[24] = biological target: HIV-1 envelope (Env) of pseudovirus WEAU_d15_410_787 (HIV-1)
[25] = biological target: HIV-1 envelope (Env) of pseudovirus BJOX009000.02.4 (HIV-1)
[26] = biological target: HIV-1 envelope (Env) of pseudovirus R1166.c01 (HIV-1)
[27] = biological target: HIV-1 envelope (Env) of pseudovirus ZM214M.PL15 (HIV-1)
[28] = biological target: HIV-1 envelope (Env) of pseudovirus Q769.d22 (HIV-1)
[29] = biological target: HIV-1 envelope (Env) of pseudovirus 3817.v2.c59 (HIV-1)
[30] = biological target: HIV-1 envelope (Env) of pseudovirus YU2_WT (HIV-1) (UniProt P35961)
[31] = biological target: HIV-1 envelope (Env) of pseudovirus ZM197M.PB7 (HIV-1)
[32] = biological target: HIV-1 envelope (Env) of pseudovirus 191955_A11 (HIV-1)
[33] = biological target: HIV-1 envelope (Env) of pseudovirus CNE17 (HIV-1)
[34] = biological target: HIV-1 envelope (Env) of pseudovirus QH0692.42 (HIV-1)
[35] = biological target: HIV-1 envelope (Env) of pseudovirus 3365.v2.c2 (HIV-1)
[36] = biological target: BG505 (T332N) N301A (HIV-1)
[37] = biological target: HIV-1 Env of pseudovirus ZM135M.PE10a (HIV-1)
[38] = biological target: BG505 (T332N) N339A (HIV-1)

## BG18 IgG (354BG18) (antibody)
[1]
  IC50 in TZM-bl assay: 0.029 µg/mL
  IC80 in TZM-bl assay: 0.35 µg/mL
[2]
  IC50 in TZM-bl assay: 0.002 µg/mL
  IC80 in TZM-bl assay: 0.008 µg/mL

## BG1 (antibody)
[3]
  IC50 in TZM-bl assay: > 30 µg/mL
  IC80 in TZM-bl assay: > 30 µg/mL
[4]
  IC50 in TZM-bl assay: > 30 µg/mL
  IC80 in TZM-bl assay: > 30 µg/mL
[5]
  IC50 in TZM-bl assay: 18.8 µg/mL
  IC80 in TZM-bl assay: > 30 µg/mL
[6]
  IC50 in TZM-bl assay: > 30 µg/mL
  IC80 in TZM-bl assay: > 30 µg/mL
[7]
  IC50 in TZM-bl assay: 0.322 µg/mL
  IC80 in TZM-bl assay: 1.13 µg/mL
[8]
  IC50 in TZM-bl assay: > 30 µg/mL
  IC80 in TZM-bl assay: > 30 µg/mL
[9]
  IC50 in TZM-bl assay: > 30 µg/mL
  IC80 in TZM-bl assay: > 30 µg/mL
[10]
  IC50 in TZM-bl assay: > 30 µg/mL
  IC80 in TZM-bl assay: > 30 µg/mL
[11]
  IC50 in TZM-bl assay: > 30 µg/mL
  IC80 in TZM-bl assay: > 30 µg/mL
[12]
  IC50 in TZM-bl assay: 2.85 µg/mL
  IC80 in TZM-bl assay: 12.9 µg/mL
[13]
  IC50 in TZM-bl assay: > 30 µg/mL
  IC80 in TZM-bl assay: > 30 µg/mL
[14]
  IC50 in TZM-bl assay: 19.3 µg/mL
  IC80 in TZM-bl assay: > 30 µg/mL
[15]
  IC50 in TZM-bl assay: 0.626 µg/mL
  IC80 in TZM-bl assay: 4.23 µg/mL
[16]
  IC50 in TZM-bl assay: > 30 µg/mL
  IC80 in TZM-bl assay: > 30 µg/mL
[17]
  IC50 in TZM-bl assay: > 30 µg/mL
  IC80 in TZM-bl assay: > 30 µg/mL
[18]
  IC50 in TZM-bl assay: > 30 µg/mL
  IC80 in TZM-bl assay: > 30 µg/mL
[19]
  IC50 in TZM-bl assay: 1.47 µg/mL
  IC80 in TZM-bl assay: 5.45 µg/mL
[20]
  IC50 in TZM-bl assay: 4.3 µg/mL
  IC80 in TZM-bl assay: 16.9 µg/mL
[21]
  IC50 in TZM-bl assay: > 30 µg/mL
  IC80 in TZM-bl assay: > 30 µg/mL
[22]
  IC50 in TZM-bl assay: 4.26 µg/mL
  IC80 in TZM-bl assay: > 30 µg/mL
[23]
  IC50 in TZM-bl assay: > 30 µg/mL
  IC80 in TZM-bl assay: > 30 µg/mL
[24]
  IC50 in TZM-bl assay: > 30 µg/mL
  IC80 in TZM-bl assay: > 30 µg/mL
[25]
  IC50 in TZM-bl assay: > 30 µg/mL
  IC80 in TZM-bl assay: > 30 µg/mL
[26]
  IC50 in TZM-bl assay: > 30 µg/mL
  IC80 in TZM-bl assay: > 30 µg/mL
[27]
  IC50 in TZM-bl assay: > 30 µg/mL
  IC80 in TZM-bl assay: > 30 µg/mL
[28]
  IC50 in TZM-bl assay: > 30 µg/mL
  IC80 in TZM-bl assay: > 30 µg/mL
[29]
  IC50 in TZM-bl assay: 11.1 µg/mL
  IC80 in TZM-bl assay: > 30 µg/mL
[30]
  IC50 in TZM-bl assay: 15.8 µg/mL
  IC80 in TZM-bl assay: > 30 µg/mL
[31]
  IC50 in TZM-bl assay: > 30 µg/mL
  IC80 in TZM-bl assay: > 30 µg/mL
[32]
  IC50 in TZM-bl assay: 0.008 µg/mL
  IC80 in TZM-bl assay: 0.018 µg/mL
[33]
  IC50 in TZM-bl assay: > 30 µg/mL
  IC80 in TZM-bl assay: > 30 µg/mL
[34]
  IC50 in TZM-bl assay: > 30 µg/mL
  IC80 in TZM-bl assay: > 30 µg/mL
[35]
  IC50 in TZM-bl assay: 1.16 µg/mL
  IC80 in TZM-bl assay: 4.27 µg/mL

## 354BG8 (antibody)
[36]
  IC50 in TZM-bl assay: 0.004 µg/mL
[37]
  IC50 in TZM-bl assay: 0.061 µg/mL
  IC80 in TZM-bl assay: 0.263 µg/mL
[38]
  IC50 in TZM-bl assay: 0.007 µg/mL
